The results in this text go back to patent US10925971B2, “Methods of treating PRLR positive breast cancer” (Regeneron Pharmaceuticals, Inc., priority 2016, dated 2021).

The experiment deals with MCF7/PRLR tumors. The experiment in a line: MCF7/PRLR breast cancer xenograft, tumor size and tumor growth inhibition. It counts as in vivo, NCr nude mice. As to conditions: for Average Tumor Growth Inhibition (%) / Final Tumor size mm^3 (mean ± SEM): NCr Nude mice. The method in brief:
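MCF7/PRLR cells in mammary fat pad of female NCr nude mice, PC3/PRLR in flank of male SCID, T47D #11 in flank of female CB17 SCID, all with estrogen pellets.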

The mark [1] stands for this setting: MCF7/PRLR tumors TRIAL #1, multi-dose 5 mg/kg, Day 52.
Setting [2] is: MCF7/PRLR tumors TRIAL #1, multi-dose 15 mg/kg, Day 52.
[3] abbreviates: MCF7/PRLR tumors TRIAL #2, multi-dose 5 mg/kg, Day 63.
[4] abbreviates: MCF7/PRLR tumors TRIAL #2, multi-dose 15 mg/kg, Day 63.

B1: H1H6958N2-DM1: anti-PRLR antibody H1H6958N2 conjugated to the maytansinoid DM1 through an SMCC linker (conjugate)
VH: QVQLVESGGGVVQPGRSLRLSCGASGFTFRNYGMQWVRQGPGKGLEWVTLISFDGNDKYYADSVKGRFTISRDNSKNTLFLQMNSLRTEDTAVYYCARGGDFDYWGQGTLVTVSS
VL: DIQMTQSPSSLSASVGDRVTITCRASQDIRKDLGWYQQKPGKAPKRLIYAASSLHSGVPSRFSGSGSGTEFTLTISSLQPEDFATYYCLQHNSYPMYTFGQGTKLEIK
In the case of B1, the “Average Tumor Growth Inhibition (%)” value runs as follows: under setting [1], 128%; under setting [2], 133%; under setting [3], 116%; under setting [4], 137%. In addition, the “Final Tumor size mm^3 (mean ± SEM)” value runs as follows: under setting [1], 51 ± 33 mm^3; under setting [2], 0 ± 0 mm^3; under setting [3], 117 ± 10 mm^3; under setting [4], 0 ± 0 mm^3. Besides, the “MCF7/PRLR tumor growth” value (first multi-dose trial, 5 and 15 mg/kg) is “potently inhibited MCF7/PRLR tumor growth”. Besides, the “tumor volume relative to vehicle control tumors” value (single dose 1 mg/kg) is “significant decrease in tumor volume”.
